# In US20120219545A1:
# Tests used:
# [1] = biological target: IgE of the serum pool of subjects 14, 47 and 48 (human); test: cell-based or functional assay
# [2] = biological target: serum IgE of subject 2 (human); test: ELISA inhibition; serum of subject 2 preincubated with rSCP, IgE binding to plate-coated boiled shrimp extract
# [3] = biological target: serum IgE of subject 43 (human); test: ELISA inhibition; serum of subject 43 preincubated with rSCP (printed 25 mg/mL), IgE binding to plate-coated boiled shrimp extract
binder,measurement,setting,value
"recombinant shrimp sarcoplasmic calcium-binding protein (rSCP) (protein, not shown: small tags and cut ends) MAYSWDNRVKYVVRYMYDIDNNGFLDKNDFECLAVRNTLIEGRGEFSADAYANNQKIMRNLWNEIAELADFNKDGEVTVDEFKQAVQKHCQGKKYGDFPGAFKVFIANQFKAIDVNGDGKVGLDEYRLDCITRSAFAEVKEIDDAYNKLTTEDDRKAGGLTLERYQDLYAQFISNPDESCSACYLFGPLKVVQ",mediator release (beta-hexosaminidase) from RBL-2H3 cells (% of total possible release),[1],30
same,mediator release (beta-hexosaminidase) from RBL-2H3 cells,[1]; scale: % of the release obtained with BS extract,65
same,maximal inhibition,[2],48%
same,maximal inhibition,[3],79%
